Source: the supplement of paper PMC9732359
± gives the uncertainty stated by the source.

Assay: protein stability index of a GFP-peptide fusion (yeast GPS) (PSI 1-4); higher = more stable; sorted into four equal gates, so the index is relative within each strain
Procedure, shortened: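 Plasmids isolated from each sorting gate were PCR-amplified and Illumina-sequenced, and barcodes assigned the reads to strains. The gates, four of equal size, were set by GFP/Cherry fluorescence ratio on mid-log cultures in leucine-free medium. These cultures were yeast carrying a pooled library of tiled 17-residue yeast protein peptides fused downstream of GFP on a plasmid that also expresses Cherry. The protein stability index is the sum of every gate's read frequency times its gate number.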

| Sequence | protein stability index (doa10∆) | protein stability index (pdr5∆) | protein stability index (san1∆) | protein stability index (ubr1∆) |
| --- | --- | --- | --- | --- |
| LHGLRSFYDAIFFNIPL [YJL039C/NUP192] | 2.61 ± 0.039 | 2.24 ± 0.042 | 2.309 ± 0.022 | 1.9 ± 0.034 |
| LHLAVGKKWFEVSQFLI [NAS6] | 2.12 ± 0.076 | 1.63 ± 0.059 | 1.63 ± 0.091 | 1.51 ± 0.073 |
| LHPYNSRGLFEKKLMQD [YDL116W/NUP84] | 2.89 ± 0.18 | 3.28 ± 0.16 | 2.86 ± 0.1 | 2.91 ± 0.13 |
| LHVLVAHKLKKSLDSIP [FAS2] | 2.31 ± 0.091 | 2.1 ± 0.088 | 1.83 ± 0.24 | 1.68 ± 0.073 |
| LICPQYGTENKDGEDII [CSL4] | 3.23 ± 0.15 | 3.41 ± 0.13 | 3.12 ± 0.14 | 3.28 ± 0.13 |
| LICQNNLNAFVDFSKYN [SRP72] | 3.1 ± 0.077 | 2.99 ± 0.063 | 3.11 ± 0.044 | 2.54 ± 0.061 |
| LIEEEVEQDEGQCRTEL [YCS4] | 3.59 ± 0.13 | 3.53 ± 0.15 |  | 3.45 ± 0.12 |
| LIEKLQGFSKDTFELIK [YDL116W/NUP84] | 3.21 ± 0.12 | 3.22 ± 0.093 | 3.29 ± 0.064 | 3.08 ± 0.07 |
| LIENGASVRIKDKFNQI [NAS6] |  | 3.12 ± 0.18 |  | 3.27 ± 0.065 |
| LIFGTIASKMSLAPEAD [RPT3] | 2.66 ± 0.044 | 2.78 ± 0.064 | 2.75 ± 0.041 | 2.65 ± 0.038 |
| LIGSIRFPTKFVTQFRH [RET1] | 1.57 ± 0.056 | 1.41 ± 0.057 | 1.29 ± 0.16 | 1.31 ± 0.048 |
| LIIRCRVVRPKSLDAET [RPO21] | 2.35 ± 0.11 | 2.52 ± 0.09 | 2.22 ± 0.13 | 2.51 ± 0.19 |
| LIKKAVSVRKHLERNRK [RPS13] | 3.43 ± 0.26 | 3.32 ± 0.11 |  | 3.28 ± 0.1 |
| LIKMSRSPPRPPSLKII [PRP28] | 2.16 ± 0.062 | 2.3 ± 0.068 | 2.3 ± 0.072 | 1.86 ± 0.052 |
| LISDSNINNSSVAEKEE [SWI3] | 1.6 ± 0.14 | 1.73 ± 0.13 | 1.56 ± 0.12 | 1.55 ± 0.11 |
| LISNAIYGKKTMVIQDE [ECM29] | 1.58 ± 0.25 | 1.83 ± 0.27 |  | 1.4 ± 0.14 |
| LISSSGPIKTPVGACAT [FAS2] | 1.76 ± 0.053 | 1.76 ± 0.11 | 1.31 ± 0.098 | 2.17 ± 0.071 |
| LITLFNKGELETQPGCN [RPO31] | 2.71 ± 0.1 | 3.26 ± 0.083 | 2.98 ± 0.097 | 2.94 ± 0.11 |
| LITTYSKLSKNISFYKL [SIN4] | 2.18 ± 0.16 | 2.47 ± 0.12 | 2.24 ± 0.11 | 2.69 ± 0.072 |
| LKAKNQEEEGELEHLTK [DSN1] | 3.42 ± 0.076 | 3.35 ± 0.066 | 3.31 ± 0.047 | 3.39 ± 0.047 |
| LKDIVGQTSRTVTPAPN [ITC1] | 2.97 ± 0.064 | 3 ± 0.041 | 2.9 ± 0.049 | 2.95 ± 0.044 |
| LKDLMDLCDVVESKFTE [RPC19] | 3.61 ± 0.2 | 3.5 ± 0.11 | 3.27 ± 0.11 | 3.26 ± 0.12 |
| LKDSKDFDESLKYLDDL [RPN9] | 3.02 ± 0.21 | 3.21 ± 0.14 |  | 2.86 ± 0.17 |
| LKFNHGNYSHLMEKNRI [REC8] | 2.06 ± 0.073 | 2.47 ± 0.056 | 2.28 ± 0.064 | 2.52 ± 0.052 |
| LKGKINNEMKSLQRSKS [SMC1] |  | 3.34 ± 0.19 | 3.11 ± 0.2 | 3.44 ± 0.099 |

| Sequence | protein stability index (doa10∆) | protein stability index (pdr5∆) | protein stability index (san1∆) | protein stability index (ubr1∆) |
| --- | --- | --- | --- | --- |
| LKHYNGYDINYISKIGE [SWI1] | 2.81 ± 0.056 | 2.71 ± 0.049 | 2.07 ± 0.066 | 2.62 ± 0.053 |
| LKIFKIFCIDLEVFHHF [SRB8] | 1.57 ± 0.069 | 2.23 ± 0.1 | 1.67 ± 0.1 | 2.53 ± 0.092 |
| LKIHQSHLVVPYCPIAS [YMR129W/POM152] | 1.25 ± 0.063 | 1.29 ± 0.061 | 1.24 ± 0.12 | 1.28 ± 0.035 |
| LKIIHTSVWAGQKRLSQ [PRP8] | 1.36 ± 0.15 | 1.31 ± 0.12 |  | 1.48 ± 0.23 |
| LKKELKLLAKELEEQES [SMC2] | 2.81 ± 0.088 | 3.14 ± 0.063 | 2.9 ± 0.09 | 3.31 ± 0.07 |
| LKKKVVDPFTRKEWFDI [RPS1B] | 2.97 ± 0.075 | 3.18 ± 0.071 | 3.18 ± 0.045 | 2.88 ± 0.049 |
| LKKLQSDIESANNQEYD [SMC1] | 3.19 ± 0.076 | 3.2 ± 0.097 | 3.16 ± 0.062 | 3.13 ± 0.076 |
| LKLPLEINYAFSMDEEF [SIR3] | 2.13 ± 0.07 | 2.18 ± 0.058 | 2.73 ± 0.056 | 2.2 ± 0.048 |
| LKNKKEIYRISFQLSKI [RPS9A] | 3.03 ± 0.12 | 3.09 ± 0.084 | 3.1 ± 0.089 | 3.2 ± 0.058 |
| LKNVEETQEIKENDTVM [ESC2] | 2.86 ± 0.097 | 3 ± 0.075 | 2.92 ± 0.14 | 3.16 ± 0.074 |
| LKPEIEKLTSKSLDEQL [LRP1] | 3.22 ± 0.083 | 3.26 ± 0.07 | 2.85 ± 0.077 | 2.88 ± 0.063 |
| LKSFTESTAGSASTSAT [ECM29] | 2.82 ± 0.067 | 3.14 ± 0.061 | 3.06 ± 0.053 | 3.15 ± 0.04 |
| LKSGLPLSGLLFKNYRF [YMR129W/POM152] | 3.65 ± 0.18 | 2.52 ± 0.2 | 3.63 ± 0.057 |  |
| LKSIESLKLENSDLEGK [SMC2] | 3.07 ± 0.13 | 2.8 ± 0.099 | 3.39 ± 0.17 | 2.99 ± 0.12 |
| LKTEKIFKEINEHSTSY [FAS1] | 3.29 ± 0.22 | 3.48 ± 0.2 |  |  |
| LKVQKLSRPSLPKIKTV [RPL35A] | 2.41 ± 0.062 | 3.11 ± 0.072 | 3.17 ± 0.057 | 3.17 ± 0.059 |
| LKYPELSIKNSFIINFI [NUT1] | 1.99 ± 0.062 | 2 ± 0.045 | 2.13 ± 0.076 | 1.94 ± 0.036 |
| LLALRERRMQVTAEDFK [RPT2] | 2.79 ± 0.13 | 2.8 ± 0.17 | 2.89 ± 0.11 |  |
| LLFIVGQVAIKTLVYLE [YCS4] |  | 1.74 ± 0.2 |  | 3.18 ± 0.1 |
| LLFKARLQQQQAQAQAQ [GAL11] | 1.3 ± 0.081 | 1.59 ± 0.075 | 1.3 ± 0.14 | 1.5 ± 0.056 |
| LLGEGESKLKIDPDTKA [RPB11] | 2.93 ± 0.19 |  |  | 3.14 ± 0.24 |
| LLIADSRRPEPKKFGGK [RPS16A] | 3 ± 0.091 | 3.12 ± 0.077 | 3.23 ± 0.065 | 3.07 ± 0.05 |
| LLINTNFNKFFKIWHGE [PCI8] | 1.37 ± 0.04 | 1.38 ± 0.04 | 1.57 ± 0.061 | 1.37 ± 0.044 |
| LLIRSKTEDPKGGIIAS [YML031W/NDC1] | 2.37 ± 0.14 | 2.36 ± 0.085 | 2.28 ± 0.085 | 2.66 ± 0.17 |
| LLKHPFKAIHGSQLRLS [YCS4] | 1.67 ± 0.046 | 1.62 ± 0.043 | 1.64 ± 0.072 | 1.83 ± 0.025 |

| Sequence | protein stability index (doa10∆) | protein stability index (pdr5∆) | protein stability index (san1∆) | protein stability index (ubr1∆) |
| --- | --- | --- | --- | --- |
| LLKKIIFEKELMYQIKK [SRB4] | 2.8 ± 0.073 | 2.67 ± 0.083 | 2.32 ± 0.09 | 2.17 ± 0.05 |
| LLKLIEPYVAYGYPSYS [RPL7A] | 2.07 ± 0.05 | 2.22 ± 0.053 | 2.2 ± 0.056 | 2.07 ± 0.042 |
| LLKSNDPLLSLYNFLHK [RGR1] | 2.31 ± 0.056 | 2.23 ± 0.053 | 2.54 ± 0.048 | 2.55 ± 0.041 |
| LLKSTGLHPFEVAQLGS [RPB4] | 1.94 ± 0.12 | 1.81 ± 0.27 |  | 2.73 ± 0.2 |
| LLLITHHSWSQSDLEII [ARP9] | 2.36 ± 0.08 | 1.68 ± 0.048 | 1.76 ± 0.075 | 1.87 ± 0.068 |
| LLLKKIIKDYVLDIVPG [SRB4] | 2.74 ± 0.094 | 2.52 ± 0.084 | 2.33 ± 0.1 | 2.71 ± 0.073 |
| LLNVSVNITKFSKFERS [SKI6] | 2.32 ± 0.075 | 2.49 ± 0.049 | 2.7 ± 0.06 | 2.44 ± 0.039 |
| LLREYDILSQILYGLVD [YJL039C/NUP192] | 2.49 ± 0.081 | 2.06 ± 0.12 | 2.07 ± 0.11 | 2.19 ± 0.064 |
| LLSKIMLNLIDDVKNIL [RPN6] | 2.2 ± 0.13 | 1.4 ± 0.1 | 1.25 ± 0.13 | 1.22 ± 0.08 |
| LLSSSNFEATKKSVLKQ [COR1] | 2.81 ± 0.29 |  |  | 2.83 ± 0.28 |
| LLTSAGCKNGSFTLLNQ [NUT1] | 2.21 ± 0.12 | 2.32 ± 0.067 | 2.3 ± 0.28 | 2.68 ± 0.12 |
| LLVDIQKYNQIQKQIET [SMC2] | 1.92 ± 0.055 | 1.86 ± 0.05 | 2.2 ± 0.081 | 1.65 ± 0.04 |
| LLVDKDANGVSLFELIV [YJL039C/NUP192] | 3.02 ± 0.051 | 3.05 ± 0.055 | 3.07 ± 0.049 | 3.25 ± 0.037 |
| LLYYIPSLELSAEYLQM [YJR042W/NUP85] | 1.12 ± 0.09 | 2.03 ± 0.18 | 1.45 ± 0.29 | 1.15 ± 0.12 |
| LMATEYQDIEGGFEDVE [RPB2] | 3.43 ± 0.14 | 3.31 ± 0.11 | 3.49 ± 0.069 | 3.44 ± 0.099 |
| LMEEIESLKKELQIFKT [YIL149C/MLP2] | 2.94 ± 0.094 | 2.96 ± 0.068 | 2.82 ± 0.072 | 3.08 ± 0.055 |
| LMEFLCVVSTDSTNLSD [ECM29] | 1.92 ± 0.059 | 1.65 ± 0.056 | 1.84 ± 0.094 | 1.72 ± 0.063 |
| LMLEDAVTEREVLVTPG [MCD1] | 1.94 ± 0.2 |  | 2.16 ± 0.13 | 2.18 ± 0.27 |
| LNDPSLKIQFILSTTLD [SIN4] | 1.11 ± 0.055 | 1.45 ± 0.074 | 1.32 ± 0.14 | 1.18 ± 0.042 |
| LNELSAKDKEIYNKMIG [RPN13] | 2.8 ± 0.092 | 2.65 ± 0.11 | 2.2 ± 0.11 | 2.83 ± 0.082 |
| LNIDFGSDKQMFTQIYL [YML103C/NUP188] | 3.17 ± 0.14 | 2.99 ± 0.15 | 2.46 ± 0.12 | 3.25 ± 0.066 |
| LNIGKNFAHSDSLSVPK [SIR4] | 3.17 ± 0.085 | 3 ± 0.075 | 3.12 ± 0.042 | 3.2 ± 0.05 |
| LNIKPLLDAGCKVVAEM [SKP1] | 2.44 ± 0.083 | 2.51 ± 0.081 | 1.85 ± 0.1 | 2.47 ± 0.054 |
| LNLLSQNNTTKFHSELQ [RPN12] | 2.47 ± 0.091 | 2.24 ± 0.078 | 1.67 ± 0.12 | 2.16 ± 0.12 |
| LNQINGLNNDFLFQNIN [GRR1] | 1.6 ± 0.1 | 2.13 ± 0.088 | 2.01 ± 0.11 | 1.8 ± 0.086 |
